Sequences and labels used below:
B1: NLRS:L222M peptide (peptide)
chain: MAGNGGDAALALMLLDRLNQLESKMSGKGQQQQGQTV
B2: NLRS:G215C peptide (peptide)
chain: B1 chain with G6C, M13L
B3: NLRS:L222M/G215C double mutant peptide (peptide)
chain: B1 chain with G6C
B4: NLRS:G215S peptide (peptide)
chain: B1 chain with G6S, M13L
B5: NLRS:G215C peptide (peptide)
peptide: B1 chain with G6C, M13L
B6: NLRS:G215S peptide (peptide)
peptide: B1 chain with G6S, M13L

Residue numbers refer to the chain shown, from its start. Numbers in names are those of the source.

One series deals with the molecule itself. The experiment in a line: AUC.
With B1, the binding result was “binds”.

As to B2, the binding result was “binds”.

Turning to B3, the binding result is “binds”.

Regarding B4, the binding result is reported as “binds”.

A further series deals with the molecule itself. Kind of series: AUC. This is another data set of the same source.
Consider B5, for which the binding result is listed as “binds”.

Consider B6, for which the binding result is “binds”.
